Biological target: lysozyme (UniProt P00698)
Experiment: ELISA; phage ELISA: lysozyme immobilised in a 96-well NUNC Maxisorp plate; 1ZVH displayed on phage
Settings: one partner purified

lysozyme, sequence (P00698 19-147): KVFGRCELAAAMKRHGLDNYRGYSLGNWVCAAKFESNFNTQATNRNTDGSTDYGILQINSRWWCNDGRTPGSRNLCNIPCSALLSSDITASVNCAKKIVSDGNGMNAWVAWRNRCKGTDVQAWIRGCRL

B1: camel nanobody 1ZVH, displayed on phage (VHH)
VHH: DVQLVESGGGSVQAGGSLRLSCAASGYIASINYLGWFRQAPGKEREGVAAVSPAGGTPYYADSVKGRFTVSLDNAENTVYLQMNSLKPEDTALYYCAAARQGWYIPLNSYGYNYWGQGTQVTVSS
notes: also called template of the ASyNAL library
binding result: binds

From publication PMC9479348 (Journal of Nanobiotechnology, 2022)
